Test results as given in PMC9023281, “Polymerase theta-helicase promotes end joining by stripping single-stranded DNA-binding proteins and bridging DNA ends”.

Legend:
[1] = molecular target: T1, Polθ-h (Polθ helicase domain) (UniProt O75417 1-894); experiment: single-molecule ssDNA curtain oligo capture; captured in trans by Polθ-h on RPA-GFP-coated ssDNA; no capture without Polθ-h; Imaging Buffer: 40 mM Tris-HCl pH 8.0, 50 mM NaCl, 2 mM MgCl2, 1 mM DTT, 0.2 mg/ml BSA, 1 mM ATP; EMSA at room temperature, single-molecule at 37 C; PARP-1 tethering without BSA; displacement EMSA in 30 mM HEPES pH 8.0, 50 mM NaCl, 1.5 mM MgCl2, 1 mM DTT; conditions: protein: recombinant; tags: pET19 N-terminal 6xHis-TwinStrep-SUMO; chain copies: 4; label: 5'-Atto647N
T1 sequence (O75417 1-894): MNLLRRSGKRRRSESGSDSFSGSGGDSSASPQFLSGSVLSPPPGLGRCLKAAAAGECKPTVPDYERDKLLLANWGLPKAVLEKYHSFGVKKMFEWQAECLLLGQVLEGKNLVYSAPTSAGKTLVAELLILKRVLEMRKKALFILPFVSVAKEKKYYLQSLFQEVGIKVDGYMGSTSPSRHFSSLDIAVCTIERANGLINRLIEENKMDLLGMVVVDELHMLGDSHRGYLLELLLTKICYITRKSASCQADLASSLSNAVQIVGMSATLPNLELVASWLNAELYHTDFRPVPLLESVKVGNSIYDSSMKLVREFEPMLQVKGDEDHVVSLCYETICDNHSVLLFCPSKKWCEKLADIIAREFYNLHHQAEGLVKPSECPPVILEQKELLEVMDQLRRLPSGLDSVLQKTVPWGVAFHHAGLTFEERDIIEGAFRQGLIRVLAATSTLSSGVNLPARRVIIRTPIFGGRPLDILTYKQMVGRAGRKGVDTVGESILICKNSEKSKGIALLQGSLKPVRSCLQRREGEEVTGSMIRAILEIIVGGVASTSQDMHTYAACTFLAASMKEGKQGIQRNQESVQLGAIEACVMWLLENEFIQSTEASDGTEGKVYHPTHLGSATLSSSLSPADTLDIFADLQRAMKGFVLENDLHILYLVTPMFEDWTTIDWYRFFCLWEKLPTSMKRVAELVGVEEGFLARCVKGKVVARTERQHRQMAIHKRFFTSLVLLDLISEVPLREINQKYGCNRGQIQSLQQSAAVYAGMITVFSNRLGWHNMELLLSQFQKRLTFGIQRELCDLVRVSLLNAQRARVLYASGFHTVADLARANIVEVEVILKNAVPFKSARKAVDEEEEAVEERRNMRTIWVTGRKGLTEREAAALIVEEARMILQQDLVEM

[2] = molecular target: T1, Polθ-h (Polθ helicase domain); experiment: EMSA; no PARP-1 modification; hyperbolic fit; Imaging Buffer: 40 mM Tris-HCl pH 8.0, 50 mM NaCl, 2 mM MgCl2, 1 mM DTT, 0.2 mg/ml BSA, 1 mM ATP; EMSA at room temperature, single-molecule at 37 C; PARP-1 tethering without BSA; displacement EMSA in 30 mM HEPES pH 8.0, 50 mM NaCl, 1.5 mM MgCl2, 1 mM DTT; conditions: protein: recombinant; tags: pET19 N-terminal 6xHis-TwinStrep-SUMO; chain copies: 4; label: 5'-32P in EMSA; unlabeled as challenge in tethering assay

Binder | binding result [1] | Kd [2]
TCCTCTTTTTCTTTTTTTCTTTTCTTCC (ssDNA) [Noncomp-647N] | binds | 
TTTTTTTTTTTTTTTTTTTTTTTTTTTTTTTTTTTTTTTTTTTTTTTTTT (ssDNA) [dT50 (Poly-T50)] |  | 39 ± 12 nM
